Patent US20060024786A1, “WASP and N-WASP constructs and methods of expressing such constructs” (Cytokinetics, Inc., priority 2004, published 2006)

What was measured:
[1] = biological target: T1, Arp2/3 complex; assay: Arp2/3-mediated actin polymerization stimulated by WASP/N-WASP proteins; type: biochemical, human; settings: for Activate Arp2/3?: Table 2
T1 construct: prepared from an Arp2/3 source such as human platelets; from tissue; host or cells: cell extract, e.g. human platelets
Experimental: Samples containing candidate agents (individually or as mixtures) are placed into wells on a multi-well plate. Mix 1 is added to each of the wells and mixed with the candidate agent. A sample of Mix 2 is then introduced into each well and the resulting mixture thoroughly mixed. Typically, Mix 1 and Mix 2 are mixed in 1:1 ratio (e.g., 50 μl each of Mix 1 and Mix 2).
Actin polymerization is measured as a function of time by exciting pyrene at 365 nm and by detecting an increase in fluorescence emission at 407 nm. The change in fluorescence over time is utilized to determine a fluorescence parameter (e.g., maximal velocity, time to half maximal fluorescence intensity or area under the curve of a plot of fluorescence versus time).
In a second set of experiments, the ability of various truncated forms of WASP were compared to the activity of the full-length protein. The polymerization assays were conducted in the presence of 500 nM Cdc42, 2.5 nm purified Arp2/3 complex and 3.5 μM actin. FL-WASP, 105 WASP and the VCA (see Example 7) domain were tested. The results of these trials were plotted to obtain EC50 values. The results are provided in FIG. 6 and in the chart below.

[2] = Solubility of purified full-length protein; type: physicochemical; settings: expressed in 293 cells, TAP-tag purification
[3] = biological target: T2, Cdc42, PIP2, Nck and Rac1 (Homo sapiens, UniProt P60953, G12V); assay: Regulation of WASP/N-WASP proteins by upstream regulators; type: biochemical; settings: Cdc42 binds and activates the construct, which then activates Arp2/3 nucleation
T2 construct: made in house; host or cells: E. coli BL21(DE3) or BL21 STAR
Source text: (§1) A second class of WASP and N-WASP proteins are those in which the WH-1 and PolyPro region have been at least partially removed. Specific examples of WASP and N-WASP proteins lacking at least a part or all of the WH1 and PolyPro regions include, but are not limited to, 213 miniWASP, 199 miniWASP and 105 miniWASP (see, FIGS. 3A and 3B). These three proteins each lack some or all of the WH-1 region, and the entire PolyPro region (approximately residues 309-414 of SEQ ID NO:2). The 213 miniWASP protein thus includes, for example, amino acid residues 213-308 and 415-501 from the full length WASP sequence (SEQ ID NO:2). 199 miniWASP includes residues 199-308 and 415-501 of SEQ ID NO:2). 105 miniWASP includes residues 105-308 and 415-501 of SEQ ID NO:2).
(§2) A fourth class of WASP and N-WASP proteins that are provided are deletion mutants in which the PolyPro region is maintained but an N-terminal region (e.g., WH1 domain) is at least partially removed. Some proteins in this class are ones that include the B, CRIB/GBD, PolyPro and VCA domains but in which some or all of the WH1 has been removed. One specific example is 98N-WASP, which includes amino acids 98-501 of SEQ ID NO:4 (also assigned SEQ ID NO:12). Another specific example is the 105 WASP protein, which includes amino acids 105-501 of SEQ ID NO:10 (see FIG. 3A and 3B). […] They can also activate actin nucleation by Arp2/3.

[4] = test system: Cdc42, PIP2, Nck and Rac1; assay: as above; type: biochemical; settings: Table 2
Source text: as §1, §2

T2 sequence (P60953 2-191 isoform P60953-1 G12V): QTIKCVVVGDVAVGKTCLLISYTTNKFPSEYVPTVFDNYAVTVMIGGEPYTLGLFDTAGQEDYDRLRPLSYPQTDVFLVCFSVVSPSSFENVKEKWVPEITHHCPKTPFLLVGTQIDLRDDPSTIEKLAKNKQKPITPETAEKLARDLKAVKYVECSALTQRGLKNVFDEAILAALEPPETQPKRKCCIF

Row | Molecule | regulation by Cdc42 [3] | Activate Arp2/3? [1] | Regulated By Which Upstream Regulators? [4] | also measured
1 | FL-N-WASP: full-length N-WASP, SEQ ID NO:4; expressed TAP-tagged in human 293 cells (protein, listed as Homo sapiens, TAP tag; (1)..(505) FL-N-WASP, expressed TAP-tagged in human 293 cells) MSSVQQQPPPPRRVTNVGSLLLTPQENESLFTFLGKKCVTMSSAVVQLYAADRNCMWSKKCSGVACLVKDNPQRSYFLRIFDIKDGKLLWEQELYNNFVYNSPRGYFHTFAGDTCQVALNFANEEEAKKFRKAVTDLLGRRQRKSEKRRDPPNGPNLPMATVDIKNPEITTNRFYGPQVNNISHTKEKKKGKAKKKRLTKADIGTPSNFQHIGHVGWDPNTGFDLNNLDPELKNLFDMCGISEAQLKDRETSKVIYDFIEKTGGVEAVKNELRRQAPPPPPPSRGGPPPPPPPPHNSGPPPPPARGRGAPPPPPSRAPTAAPPPPPPSRPSVAVPPPPPNRMYPPPPPALPSSAPSGPPPPPPSVLGVGPVAPPPPPPPPPPPGPPPPPGLPSDGDHQVPTTAGNKAALLDQIREGAQLKKVEQNSRPVSCSGRDALLDQIRQGIQLKSVADGQESTPPTPAPTSGIVGALMEVMQKRSKAIHSSDEDEDEDDEEDFEDDDEWED | – | – | – | stimulation of actin polymerization by the protein by itself ([1]; without upstream regulators, FIG. 5): only weakly stimulate actin polymerization; solubility of purified protein [2]: completely soluble
2 | 213 miniWASP: amino acid residues 213-308 and 415-501 of full length WASP (SEQ ID NO:2) (protein, listed as Homo sapiens, (1)..(502) FL-WASP) RGLPAPGPSPADKKRSGKKKISKADIGAPSGFKHVSHVGWDPQNGFDVNNLDPDLRSLFSRAGISEAQLTDAETSKLIYDFIEDQGGLEAVRQEMRLPPALVPAGGLAPGGGRGALLDQIRQGIQLNKTPGAPESSALQPPPQSSEGLVGALMHVMQKRSRAIHSSDEGEDQAGDEDEDDEWD | regulated by Cdc42 | – | – | –
3 | 199 miniWASP: residues 199-308 and 415-501 of SEQ ID NO:2 (protein, listed as Homo sapiens, (1)..(502) FL-WASP) TVDIQNPDITSSRYRGLPAPGPSPADKKRSGKKKISKADIGAPSGFKHVSHVGWDPQNGFDVNNLDPDLRSLFSRAGISEAQLTDAETSKLIYDFIEDQGGLEAVRQEMRLPPALVPAGGLAPGGGRGALLDQIRQGIQLNKTPGAPESSALQPPPQSSEGLVGALMHVMQKRSRAIHSSDEGEDQAGDEDEDDEWD | regulated by Cdc42 | – | – | –
4 | 105WASP: WASP deletion mutant lacking the WH1 domain, amino acids 105-501; SEQ ID NO:10 (protein, listed as Homo sapiens, (1)..(398) 105WASP) LVYSTPTPFFHTFAGDDCQAGLNFADEDEAQAFRALVQEKIQKRNQRQSGDRRQLPPPPTPANEERRGGLPPLPLHPGGDQGGPPVGPLSLGLATVDIQNPDITSSRYRGLPAPGPSPADKKRSGKKKISKADIGAPSGFKHVSHVGWDPQNGFDVNNLDPDLRSLFSRAGISEAQLTDAETSKLIYDFIEDQGGLEAVRQEMRRQEPLPPPPPPSRGGNQLPRPPIVGGNKGRSGPLPPVPLGIAPPPPTPRGPPPPGRGGPPPPPPPATGRSGPLPPPPPGAGGPPMPPPPPPPPPPPSSGNGPAPPPLPPALVPAGGLAPGGGRGALLDQIRQGIQLNKTPGAPESSALQPPPQSSEGLVGALMHVMQKRSRAIHSSDEGEDQAGDEDEDDEWDD | – | Yes | Cdc42, PIP2, Nck and Rac1 | –
5 | 98 N-WASP: N-WASP deletion mutant, amino acids 98-501 of SEQ ID NO:4; SEQ ID NO:12 (protein, listed as Homo sapiens, (1)..(408) 98N-WASP) FVYNSPRGYFHTFAGDTCQVALNFANEEEAKKFRKAVTDLLGRRQRKSEKRRDPPNGPNLPMATVDIKNPEITTNRFYGPQVNNISHTKEKKKGKAKKKRLTKADIGTPSNFQHIGHVGWDPNTGFDLNNLDPELKNLFDMCGISEAQLKDRETSKVIYDFIEKTGGVEAVKNELRRQAPPPPPPSRGGPPPPPPPPHNSGPPPPPARGRGAPPPPPSRAPTAAPPPPPPSRPSVAVPPPPPNRMYPPPPPALPSSAPSGPPPPPPSVLGVGPVAPPPPPPPPPPPGPPPPPGLPSDGDHQVPTTAGNKAALLDQIREGAQLKKVEQNSRPVSCSGRDALLDQIRQGIQLKSVADGQESTPPTPAPTSGIVGALMEVMQKRSKAIHSSDEDEDEDDEEDFEDDDEWED | – | Yes | Cdc42, PIP2, Nck and Rac1 | –
